In publication PMC11960969, “Mdga2 deficiency leads to an aberrant activation of BDNF/TrkB signaling that underlies autism-relevant synaptic and behavioral changes in mice” (PLOS Biology, 2025):

Columns and labels:
[1] = biological target: T1, recombinant TrkB protein (full-length human TrkB, His) (human, UniProt Q16620 32-822); experiment: pull-down; purified human TrkB protein incubated with GST-fused MDGA2-L1, MDGA2-L2 or GST and pulled down with Glutathione Sepharose 4B; immunoblot; details: both partners purified
T1 construct: TrkB, human, full-length cDNA in the pcDNA6-His vector; also called purified human TrkB protein; human TrkB protein; source: HEK293T, purified (His-tag Protein Purification Kit)

[2] = biological target: T1, recombinant TrkB protein (full-length …); experiment: SPR; TrkB immobilised on a Biacore CM5 chip by amine coupling; recombinant MDGA2 protein or MDGA2-P2 peptide flowed over at a series of concentrations; Biacore T100 Evaluation software; details: both partners purified

T1 sequence (Q16620 32-822): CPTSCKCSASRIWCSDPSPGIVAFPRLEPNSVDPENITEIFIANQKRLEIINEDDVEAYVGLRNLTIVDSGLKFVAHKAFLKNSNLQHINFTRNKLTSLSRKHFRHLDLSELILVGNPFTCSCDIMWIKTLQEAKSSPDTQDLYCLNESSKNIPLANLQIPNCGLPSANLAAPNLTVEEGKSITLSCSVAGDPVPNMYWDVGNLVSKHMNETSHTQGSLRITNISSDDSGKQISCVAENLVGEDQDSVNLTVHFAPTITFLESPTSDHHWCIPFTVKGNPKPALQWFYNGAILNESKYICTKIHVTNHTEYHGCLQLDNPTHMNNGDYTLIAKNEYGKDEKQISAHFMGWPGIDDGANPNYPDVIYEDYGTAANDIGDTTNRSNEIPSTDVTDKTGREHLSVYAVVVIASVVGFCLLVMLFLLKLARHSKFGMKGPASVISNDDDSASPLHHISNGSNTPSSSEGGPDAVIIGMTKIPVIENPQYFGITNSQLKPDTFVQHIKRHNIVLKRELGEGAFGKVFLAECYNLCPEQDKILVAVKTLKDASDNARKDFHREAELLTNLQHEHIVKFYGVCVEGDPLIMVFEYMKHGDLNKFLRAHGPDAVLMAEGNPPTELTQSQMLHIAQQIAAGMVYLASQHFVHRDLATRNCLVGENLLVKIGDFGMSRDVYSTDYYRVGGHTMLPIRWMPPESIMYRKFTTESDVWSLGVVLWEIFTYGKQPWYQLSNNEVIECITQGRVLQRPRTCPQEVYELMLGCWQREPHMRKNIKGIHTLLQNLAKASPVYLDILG

Row | binding result [1] | Kd [2] | Binder
1 | binds |  | NADRSGSKEGFYMYIETSRPRLEGEKARLLSPVFSIAPKNPYGPTNT (domain or fragment, human, UniProt Q7Z553 787-833, looked up, MDGA2, human, residues 787-833 (L2, second segment of the M1 half of the MAM domain); also called GST-tagged L2; source: bacteria, purified (Glutathione Sepharose 4B)) [GST-fused MDGA2-L2 (MDGA2 aa 787-833)]
2 |  | 9.2 nM | KARLLSPVFSIAPKNPYGPTNT (MDGA2, human, residues 812-833 (P2); The methods tell the synthesis only of the biotin-labeled peptide; also called MDGA2-derived peptide; source: synthetic peptide) [MDGA2-P2 peptide (aa 812-833), label not stated]
